# Measured values taken from article PMC7885398, “Multi-carbon dots and aptamer based signal amplification ratiometric fluorescence probe for protein tyrosine kinase 7 detection”.
# T1: Protein tyrosine kinase 7 (PTK 7) (UniProt Q13308 31-704)
# T1 sequence: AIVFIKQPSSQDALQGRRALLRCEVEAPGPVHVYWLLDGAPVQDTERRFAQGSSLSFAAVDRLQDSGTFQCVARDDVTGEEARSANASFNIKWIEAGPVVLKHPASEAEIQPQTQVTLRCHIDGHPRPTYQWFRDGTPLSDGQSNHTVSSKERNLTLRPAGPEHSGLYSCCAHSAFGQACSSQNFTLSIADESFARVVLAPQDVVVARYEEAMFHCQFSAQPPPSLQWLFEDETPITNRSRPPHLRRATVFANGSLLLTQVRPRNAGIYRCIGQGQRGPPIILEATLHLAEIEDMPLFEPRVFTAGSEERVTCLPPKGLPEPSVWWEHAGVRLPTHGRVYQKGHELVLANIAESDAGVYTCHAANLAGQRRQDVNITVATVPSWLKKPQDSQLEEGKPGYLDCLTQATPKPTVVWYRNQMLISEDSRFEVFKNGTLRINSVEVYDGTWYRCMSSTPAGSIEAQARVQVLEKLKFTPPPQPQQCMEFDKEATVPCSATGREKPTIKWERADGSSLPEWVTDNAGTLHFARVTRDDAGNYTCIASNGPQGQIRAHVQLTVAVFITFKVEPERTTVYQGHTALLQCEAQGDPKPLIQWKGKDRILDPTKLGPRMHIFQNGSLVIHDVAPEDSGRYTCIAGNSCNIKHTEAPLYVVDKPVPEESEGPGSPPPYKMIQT
# Target: T1, Protein tyrosine kinase 7 (PTK 7)
# Assay: competition: displacement of y-CDs-APT from Fe3O4-cDNA, ratiometric fluorescence; Fe3O4-cDNA (S2) competitor strand; PTK7 0.1-200 ng/mL, LOD 0.016 ng/mL; Buffer, salt and pH not given in material; probe hybridisation 25 °C, 60 min; DNase I amplification
# Settings: protein: recombinant; label: y-CDs (emission 580 nm); assayed pre-hybridised to partly complementary cDNA S2 on Fe3O4; PTK7 displaces S2
binder,measurement,value
"ATCTAACTGCTGCGCCGCCGGGAAAATACTGTACGGTTAGA (ssDNA, conjugated to yellow carbon dots (y-CDs); attachment end not stated) [APT (PTK7 aptamer), as y-CDs-APT]",binding result,binds
